T1: human C5a receptor (human, UniProt P21730 1-350)
T1 construct: whole, on cells; also called C5aR-RBL cells; RBL-C5aR cells
T1 sequence (looked up): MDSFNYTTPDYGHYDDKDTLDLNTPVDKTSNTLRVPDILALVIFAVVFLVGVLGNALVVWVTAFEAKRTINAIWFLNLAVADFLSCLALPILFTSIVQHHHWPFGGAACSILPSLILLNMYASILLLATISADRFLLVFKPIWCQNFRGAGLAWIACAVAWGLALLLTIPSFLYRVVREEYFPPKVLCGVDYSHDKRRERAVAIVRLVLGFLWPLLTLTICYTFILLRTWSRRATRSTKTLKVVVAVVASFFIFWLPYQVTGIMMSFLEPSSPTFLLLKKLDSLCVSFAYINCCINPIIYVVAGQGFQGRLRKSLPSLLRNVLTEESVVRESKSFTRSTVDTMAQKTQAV


What was measured:
human C5a receptor [1] = biological target: T1, human C5a receptor; assay: competition with 125I-rhC5a tracer on RBL cells stably transfected with human C5a receptor, on ice, filtration
Description: (§1) For competitive binding studies, 40 μl of a reaction mixture containing a constant amount of ¹²⁵I-rhC5a as tracer (≈17000 cpm) and increasing concentrations of unlabeled C5a muteins were incubated in a microtiter plate on ice. […] The binding reaction was started by adding 25 μl of ice-cold RBL-C5aR cell suspension. After incubation on ice for 30 min, cell bound and free ¹²⁵I-rhC5a were separated by filtration of 60 μl through a microtitration-membrane plate (Multiscreen™-HV; 0.45 μm, MAHV N45, Millipore) using a vacuum manifold (Millipore). […] Punched out membranes were counted in a γ-counter (Packard, Canberra). The plot of cell-bound ¹²⁵I-rhC5a versus concentration of unlabeled competitor yields the half-maximal inhibitory concentrations (IC₅₀) (cf. FIG. 3, Table 1).

human C5a receptor [2] = biological target: T1, human C5a receptor; assay: cell-based or functional assay
human C5a receptor [3] = biological target: T1, human C5a receptor; assay: competition with 125I-rhC5a on RBL cells stably transfected with human C5a receptor; reference rhC5a
Description: The values for rhC5a (“isolated” curve closest to the y-axis) are depicted as black circles, those for the mutein A8B as rhombi, for A8BLeu70 as triangles, for A8BLeu70Tyr73 as squares, for A8BArg as hexagons, for A8Bdel71-73 as dark-gray circles and those for A8BCys73 as light-gray circles.
as §1

Row | Binder | IC50 (human C5a receptor [1]) [nM] | ED50 [nM] (N-acetyl-beta-D-glucosaminidase release from C5aR-RBL cells) (human C5a receptor [2]) | ID50 [nM] (inhibition of N-acetyl-beta-D-glucosaminidase release from C5aR-RBL cells) (human C5a receptor [2]) | fold difference of IC50 against rhC5a (human C5a receptor [3]) [fold]
1 | C5a-(1-66,Cys27Ala)-A8B-Del.71-73 (ligand, also called C5a-(1-66, Cys27Ala)-FKRS-70; 67-FKRS-70) TLQKKIEEIAAKYKHSVVKKCCYDGAAVNNDETCEQRAARISLGPRCIKAFTECCVVASQLRANISFKRS | 26.9 | > 4000 | 17.4 | –
2 | C5a-(1-66,Cys27Ala)-A8B (ligand, Mutein of human C5a, expressed in the E. coli periplasm without a fusion partner and purified on mAb 561; also called C5aRA A8B; mutein A8B) TLQKKIEEIAAKYKHSVVKKCCYDGAAVNNDETCEQRAARISLGPRCIKAFTECCVVASQLRANISFKRSLLR | 35.4 | > 4000 | 22.3 | –
3 | C5a-(1-66,Cys27Ala)-A8B-Ala69 (ligand, also called A8B-Arg69Ala) TLQKKIEEIAAKYKHSVVKKCCYDGAAVNNDETCEQRAARISLGPRCIKAFTECCVVASQLRANISFKASLLR | 30.1 | 36.8 | – | –
4 | C5a-(1-66,Cys27Ala)-A8B-Leu70 (ligand, also called 67-FKRLLLR-73) TLQKKIEEIAAKYKHSVVKKCCYDGAAVNNDETCEQRAARISLGPRCIKAFTECCVVASQLRANISFKRLLLR | 23.1 | > 4000 | 7.9 | –
5 | C5a-(1-66,Cys27Ala)-A8B-Asp69 (ligand, also called A8B-Arg69Asp) TLQKKIEEIAAKYKHSVVKKCCYDGAAVNNDETCEQRAARISLGPRCIKAFTECCVVASQLRANISFKDSLLR | 5.4 | 5.9 | – | –
6 | C5a-(1-66,Cys27Ala)-A8B-Cys73 (ligand, also called Ab8-Cys73; 67-FKRSLLC-73) TLQKKIEEIAAKYKHSVVKKCCYDGAAVNNDETCEQRAARISLGPRCIKAFTECCVVASQLRANISFKRSLLC | 37.3 | > 4000 | 17.4 | –

Other lines, results leading:

Row | IC50 (human C5a receptor [1]) [nM] | ED50 [nM] (N-acetyl-beta-D-glucosaminidase release from C5aR-RBL cells) (human C5a receptor [2]) | ID50 [nM] (inhibition of N-acetyl-beta-D-glucosaminidase release from C5aR-RBL cells) (human C5a receptor [2]) | fold difference of IC50 against rhC5a (human C5a receptor [3]) [fold] | Binder
7 | 2.7 | 3.5 | – | – | recombinant human C5a (ligand, 74-residue recombinant human C5a; also called rhC5a; rC5a) TLQKKIEEIAAKYKHSVVKKCCYDGACVNNDETCEQRAARISLGPRCIKAFTECCVVASQLRANISHKDMQLGR
8 | – | > 4000 | 60.8 | – | C5a-(1-66,Cys27Ala)-A8B-Lys69-Ala70 (ligand) TLQKKIEEIAAKYKHSVVKKCCYDGAAVNNDETCEQRAARISLGPRCIKAFTECCVVASQLRANISFKKALLR
9 | 43.1 | > 4000 | 17.5 | 16 | C5a-(1-66,Cys27Arg)-A8B (ligand, also called A8B-Arg27; A8B Arg 27) TLQKKIEEIAAKYKHSVVKKCCYDGARVNNDETCEQRAARISLGPRCIKAFTECCVVASQLRANISFKRSLLR
10 | 21.3 | > 4000 | 8.8 | 8 | C5a-(1-66,Cys27Ala)-A8B-Leu70-Tyr73 (ligand, also called 67-FKRLLLY-73) TLQKKIEEIAAKYKHSVVKKCCYDGAAVNNDETCEQRAARISLGPRCIKAFTECCVVASQLRANISFKRLLLY

— patent US20060052294A1 (CINCINNATI CHILDREN S HOSPITAL MEDICAL CENTER, published 2006)
